Data reported in a protein production outcome set (Wang et al. 2014).

Experiment: label from the status in PepcDB records
With “MKELIKEHQKDINPALQLHDWVEYYRPFAANGQSANYIPALGKVNDSQLGICVLEPDGTMIHAGDWNVSFTMQSISKVISFIAACMSRGIPYVLDRVDVEPTGDAFNSIIRLEINKPGKPFNPMINAGALTIASILPGESAYEKLEFLYSVMETLIGKRPRIHEEVFRSEWETAHRNRALAYYLKETNFLEAEVEETLEVYLKQCAMESTTEDIALIGLILAHDGYHPIRHEQVIPKDVAKLAKALMLTCGMYNASGKYAAFVGVPAKSGVSGGIMALVPPSARREQPFQSGCGIGIYGPAIDEYGNSLTGGMLLKHMAQEWELSIF” the protein production was “not failed”.
With “MKELQEKNEQITLLVEMSDIMLACGSQEELSEVMAKYSQRLLQFSSGYLFIMHPSKNYLEKAASWGNPHPHDLTFTPEQCWAIRLGRIHYAGSSRIELMCSHMMFDEQPELSLLCVPLMAQNDIYGLLYLEVGLKFDENQQLLITAFAELTALALANVRLRENLRYQSIR” the protein production was “failed”.
With “MKEPPMTKTVFHLGVTEADLNGATLAIIPGDPARVQKIAELMDNPVFLASHREYTVYRAELDGQSVVVCSTGIGGPSTSIAVEELAQLGVRTFLRVGTTGAIQPHVNVGDMIVTTGSVRLDGASLHFAPMEFPAVPDFDVATAMKAAAQESGATVHMGVTASSDTFYPGQERYDTFTGRVVRRFQGSMKEWQDMGVLNFEMESATLLTMCASSGLKAGCVAGVIINRTQKEIPDHATLKETEARSIKVVVEAARKMLK” the protein production was “not failed”.
With “MKERIVGQSGELFCFGQMPVWKVENLPEVLLSGYSSEEGEWVCLNVLQGDVEVRAPDGSAEVWSADGGDCVFAPQQVFSVKPKTDDAEIRLSLYCAAADYFHKKYGMSATHSAVAAARDTVPAGRALDMGCGQGRNALFLGLKGFEVTAVDHNPAALANVAELAEAEGLNVRTLEYDLNAAALQGEFDYIVATVVLMFLMPQRVPDVIADMQAHTAAGGYNLIVSAMDTADFPCPMPFPFKFKEGELKDYYRDWELVEYKEELGSMHAKDENGNPIRFKFVTMLAKKPELEHHHHHH” the protein production was “failed”.
In the case of “MKFDESKTLLPVRKPVNGNRKTAGYKLWVLIAVLLLAFGSMLTGSVSLKGIGLFHSADGVNAFSFGDDLDVLEIEEREKVVRQMWDVYGRSGGVKVPRFWREAFEAAYEFLISDSAAVRNAAVSDIAKLSLVRFVKSESTSAQPNLH”, the protein production is reported as “failed”.
For “MKFFGFYRPIALIAGITVSASILTSVATAAESPTSFQAITPAFSSSSAPEADAEANTSEATADLLYVAENQLLIKLSNAVVEDVNGEILMKDNKGTLLENLTAELQAQPGFSIEKVDSHTALLTMNPDEVPDLQDWRCGVGALSGGVAGVVATGLALAALGVATGGTGFAVLAAGGLAGYGTGAVANC”, the protein production was “failed”.
With “MKFFSVFILAILSILCMPLIASTTNYDETLTKIETLQHSDLPAAINLIKTIESEFGAMSRLQQGRVLLFKGAASIYSGQYQTAIELLGQAEALLKDSEMLFSAYSYEATAYIALRHFNDAFIAMGKSLGLIERIEDTNLKRASYLRLASLYSAMGISEEVATYATKALALASESDVKDICGARLYLSVHQLEIASYAQAFDEFKSTRSYCESSGYPLIANIALKGMGESSLRLNEPQLAISYLLDSLKGYESFNFELEINSVHELLSEAYLLLQDSTKAELHAQYVMNLVDDSSNTELKHGASGVLAKIYAQKQQFEQAYEYSRKEQHYNQLIFDESRMKTLAYQAAKFNADEQAREINLLNKERELYIAQQMVKEREYTNMLMFITILVGGLFFLAILLVVGNLQKRRFMRMAKMDALTGVLNRGAGQDLGENMFVQAAARGGDYCVILFDLDHFKRINDSYGHGTGDWALKKVVEVLKPHIRNGDVFARIGGEEFALFLPYANEAKGLDVAEQCRSRIEAIDTHLSGHKFTITASFGVSGMTKDDLSLDPLLHRADMALYAAKSNGRNCVSCYQDALMCDKRVTNLTSELARQP” the protein production was “failed”.
With “MKFHVIDRENWNREQYFEHYLELKCTFSMTVNVDITLLIKKVHQKGIKFYPTFIYIISRIINKHKEFRTCFNDEGVLGYWEEMIPSYTIFHKDDKSFSSIWTDYSSDFRIFYKNYEEDMRCYASVHGLLTKENIPPNIFPISGIPWTSFTGFNLNINNDGDFLLPIITCGKYFNEENKIMLPVSLQVHHSVCDGYHVSRFIEDLQELSNSCNEWLK” the protein production was “failed”.
With “MKFQLYIQPKLDILQGNIVEYEILLRDDSEVPRFPLSELEAVLADEELYLTFCEWFSDAFFDVLKKYPNDRFAINIAPQQLFYMETLHMLDKLRSESHRITIEMTEDIFDVPAHKRHLNADDKDAFILNKIKIIHGLGYHVAVDDVGCGLNSLERVLSYLPYIIELKFSLIHFNNIDLEDLLLFIKAWANFAHKNNLDFVVEGIETKETMAILESHGVSIFQGYLVNKPFPV” the protein production was “failed”.
With “MKFSVIIPVYNASKFIDYCVESVLSQSYSDIEVILINDGSTDKSGEICEGFARKDNRVKVYHQENQGAAVARNHGIRKATGDYLLFPDSDDYYASSLGFEEINNQLEETKADVLIHDSFVERGNGTPDDLHSSLLREEVLKLEKIEFIEYLIKKDKLTRSAWTKVISRSFLSKNNILFPTVRQTEDTGFTAELVRLGNSFDWYEKQFYAYVKHDESVTAKRLPESIIHDSFSVIKTAVINGELIKDSRYREAYYSYLAYPYVVLIGQTKEAINRGVIKENTILNDLKQYSFLMKYNLNPKLKVIKHLYKLFGYLMIVFLLSVMMELTYRKQGV” the protein production was “failed”.
In the case of “MKGKEIMEIKRILVSRTDKIGDLVLSIPSFFMLKKMYPNAELVVIVRKYNVDIVKNLPYIDRIVIIDEYSKAELLEKIAYFKADVFIALYNDSYIASLARASKAKIKIGPISKLSSFFTYNKGVLQKRSLSLKNEGQYNLDLVTKLDRKRFAILYELNTKLILTDENKKVADVYFKENSIEGKTLVVNPFIGGSAKNITDEQYISILKKIKEKMPDLNIIITSYTTDEERTEKLCKDIGKDKIFAFSNGASILNTASIIDRADVYFGASTGPTHIAGALGKKIVAIYPHKKTQSPTRWGVLGNSNVRYIIPDENNPNEDYKNPYFDNFTKDMEDKVVKAILEALK”, the protein production is reported as “failed”.
In the case of “MKGKLQNIHPLGMTIIIGTLFARFATSMSIPFLAIYLTTVKGVSAGMTGAIIGTSALVGVFASFIGGNLSDRFGRKMIMLWSMIVWMFVFIGFSLADHVLSFFLLNALNGLCRSFFEPTSRALLSDLTKPEYRLLVYNLRYGAINVGVAIGPIVGLQIGSAKSTIPFLVAAGVYILYTAILAFQFKKYPMEKKKVSTEKPVTMLNAMRILRKDIVFLVALVGIILSNCGFSHLTTTVSQYFANAHIFQDGVKVFSYMLALNAIVVVVIQYPVIQICKKYTPLVSIMVGTLFVSGGLFGFGIIESTLGAAICTIIFTIGEVLMFSMTDVFIDDIAVAHLKGTYFGAMGFSGIGAVIGPWFGGVLLDYYGYQNGFVVFSALAIFSTVAFPVLLVTKSLLKKRYDGNSNIELHAK”, the protein production is reported as “failed”.
With “MKGKVVSYLAAKKYGFIQGDDGESYFLHFSELLDKKDEGKLVKGSMVHFDPTPTPKGLAAKAISLPEVFIRERLVDFFTTRDNRPKNGTVIASFPIATRFFKDPSEGRRHLEQLAKHCGCNAVLNVSFEKDTFSKGNYRYTVHAFKGELALVTEKVPADAQELVVASAELLEKRKADVEQAVKQMSEAENLARQKQLSGCLGTLAIITLIPLALVLTAIAVFPA” the protein production was “failed”.
With “MKGRIELGDVTPHNIKQLKRLNQVIFPVSYNDKFYKDVLEVGELAKLAYFNDIAVGAVCCRVDHSQNQKRLYIMTLGCLAPYRRLGIGTKMLNHVLNICEKDGTFDNIYLHVQISNESAIDFYQKFGFEIIETKKNYYKRIEPADAHVLQKSLRSPCAPPAGELQKAD” the protein production was “failed”.
In the case of “MKGRLLQRLRQLSISNSLRGAFLTGALLTLIVSMVSLYSWHEQSSQVRYSLDEYFPRIHSAFLIEGNLNLAVDQLNEFLLAPNTTVRLQLRTQIIQHLDKIERLSQGLQLAERRQLAVILQDSRTLLAELDNALYNMFLVREKVSELSARLTGSSDDFTTELNSLVQDFTWQQGTLLDQIEANQGDAAQYLQRSREVQNEQQQVYTLAEIENQIVDDLRDRLNELKSGNNDGMLVETHIRYLENLKKTADENIRALDDWPSTITLRQTIDELLEIGMVKNKMPDTMRDYVAAQKALLDASRAREATLGRFRTLLEAQLGSSHQQMQTFNQRLEQIVRVSGGLILVATLLALLLAWGLNHYFIRSRLVKRFTALNQAVVQIGLGRTDSTIPVYGRDELGRIARLLRHTLGQLNMQRRQLEQEVAERKEIEADLRAMQDELIQTAKLAVVGQTMTTLAHEINQPLNALSMYLFTAGRAIEQGQSGQARNTLRKAEGLINRIDAIIRSLRQFYRRAELETPLYPVDARQTFVAAWELLAMRHQSRQGALSLPTDTVWVSGDEVRIQQVLVNVLANALDACSHDAVIAVTWQTQGEALEVYIADNGPGWPVALLPSLLKPFTTSKAVGLGIGLSISVSLMAQMKGDLRLASTLTRNACVVLQFSVTDVDDVE”, the protein production is reported as “failed”.
With “MKGYGEMAKNNPTRITAEPGKQEIIITREFDAPRELVFKAFTDPDLYTQWIGPRGFTTALKIFEPKNGGSWQYIQKDPEGNEYAFHGVNHDVTEPERIISTFEFEGLPEKGHVILDTARFEALPGDRTKLTSHSVFQTIEDRDGMLQSGMEEGINDSYERLDELLEKMKKLEHHHHHH” the protein production was “not failed”.
For “MKHAFDRFVQYLQKNYFSYWIVLGIDTFIALICTWVSFIGIHYITETSKEITSLFHILAISVISSILGSFLFHTYRNTIRFSQLKELWRLAGSALIKAVCIAMAIWLFLPQTGLHNSQKIVFVLFDGMLTFIAMVGFRIQLILVYELLLNMLNKKNMHILIYGIDDKSVALKVRLMNSSHYKVVGFCIYGTGDSIRRVADLPVYSFKDEECFNKLIHKKCIGGILFARYENTREEEDRLLQYCKRSGLKTLIAPSISEADENGSFHQWVRPIKIEDLLGRSEIHINMEEVMTEFCGKVVLVTGAAGSIGSELCRQLAQMNIKKLIMFDSAESPLHNVRLEFEKNYPDLDFVPVIGDVRVKERLRMVFETYQPQIIFHAAAYKHVPLMEENPCEAVLVNVVGSRQVADMAVEYGAEKMIMVSTDKAVNPTNVMGCSKRLAEIYVQSLGCAIREGKVKGHTKFITTRFGNVLGSNGSVIPRFKEQIENGGPVTVTHPDIIRFFMTIPEACRLVMEAATMGEGNEIFVFEMGKAVKIVDLATRMIELAGYRPGEDIEIEFTGLRPGEKLYEEVLSDKENTIPTENKKIMIAKVRHYEYTDILDTYTEFEKLSRSVQIMDTVKLMKRVVPEFKSKNSPRFEVLDR”, the protein production was “failed”.
With “MKHASHKATTVSRQKFSLAKALFASGKGSHSVRAVRAVQSAGSDAVVLGLDPAIAEKINEIAPQTRRSIREAARAAERRSHILASASLAALVGTAAGALAFSNNEDATNSFVADPATTTTQIKRISDVTAASRSEARTDLSSSSVTAQSTNEGGWGLSNSDSTLDAKLMNRNNANNPVVSALVDADGDAVPAGFNPNHAVGTNSNNYPWGQCTWYAYQRRAELGLPSSGNFGNGGAWAASASALGYWVDNTPRHVGDAVVFAPGQADADGAYGHVAVLEKINADGSIEISESNAKGLGVISTRTFSAAEAGKFQYVHY” the protein production was “failed”.
For “MKHDKKNSKIIPFPNVKERLVHKGMGALKEKNYHEALRLFSEAKRYNDEESDIYLGMAICLLEIGELEEAKGICEKMLKEGHGHYFTVLQVYMTILIQLRQYEKVKETIEAVLEENKLPPESAEQFYKLLDFSRKMTEDPGPEDITEDLPETEEVDQERLLNDTEEQVKLLHGLKDRNLTSYIGLLKTILQNPSAHPVVKTMILQLLAESDHEKPTLVAKFGDSMTINPTETVKPDDMPILKHVLSVLDDTLGNENPTLYQAVEELWRRHIYVLYPFQPKYSNRELWAAALHKVGYEMHGIDIDKEELHILYEFNDRQLDEACALIKDIEEISYL”, the protein production was “failed”.
In the case of “MKHIFRFKNYFFHSKNNQLKRLLLVAFLLTGLWLTPQQGRVWGQEQPFVVKKIDLSQYGAAASIAQDPESKQLAIGFYNCNLIFLDANLNQDQKNNLFLKNCKRFFRARYGEFGSIPFLISSIYTGSSVLHNSQENFDIPLHKAAVTDSLILQDYLLSSSDDGSVTISRLISLSPPEVNTFKLYQSIGVARNLAFTHTSNPEVGKVAVSYDTGEIAIFNIDHDTARNPVEPSTFKTINSRINTFKFTPDGAKLLIGYFTGELVELDLATGAHKTLAKVNSWLNALDINSENLVAIADDQGFVKIISLTTGKIVEEHKISTTGINAVIFTDDQTVVAADATGMIYQGKLAGSN”, the protein production is reported as “failed”.
